Tests used:
Assay in all cases: flow cytometry, transfected 293T cells
[1] = molecular target: CHIKV E2-E1 envelope glycoproteins (strain S27), E2 mutant G79A (chikungunya virus strain S27) (UniProt Q8JUX5)
[2] = molecular target: CHIKV E2-E1 envelope glycoproteins (strain S27), E2 mutant L83A (chikungunya virus strain S27) (UniProt Q8JUX5)
[3] = molecular target: CHIKV E2-E1 envelope glycoproteins (strain S27), E2 mutant P106A (chikungunya virus strain S27) (UniProt Q8JUX5)
[4] = molecular target: CHIKV E2-E1 envelope glycoproteins (strain S27), E2 mutant D43A (chikungunya virus strain S27) (UniProt Q8JUX5)
[5] = molecular target: CHIKV E2-E1 envelope glycoproteins (strain S27), E2 mutant G98A (chikungunya virus strain S27) (UniProt Q8JUX5)
[6] = molecular target: CHIKV E2-E1 envelope glycoproteins (strain S27), E2 mutant G108A (chikungunya virus strain S27) (UniProt Q8JUX5)
[7] = molecular target: CHIKV E2-E1 envelope glycoproteins (strain S27), E2 mutant L52A (chikungunya virus strain S27) (UniProt Q8JUX5)
[8] = molecular target: CHIKV E2-E1 envelope glycoproteins (strain S27), E2 mutant A89S (chikungunya virus strain S27) (UniProt Q8JUX5)
[9] = molecular target: CHIKV E2-E1 envelope glycoproteins (strain S27), E2 mutant C105A (chikungunya virus strain S27) (UniProt Q8JUX5)
[10] = molecular target: CHIKV E2-E1 envelope glycoproteins (strain S27), E2 mutant K66A (chikungunya virus strain S27) (UniProt Q8JUX5)
[11] = molecular target: CHIKV E2-E1 envelope glycoproteins (strain S27), E2 mutant C125A (chikungunya virus strain S27) (UniProt Q8JUX5)
[12] = molecular target: CHIKV E2-E1 envelope glycoproteins (strain S27), E2 mutant Q53A (chikungunya virus strain S27) (UniProt Q8JUX5)
[13] = molecular target: CHIKV E2-E1 envelope glycoproteins (strain S27), E2 mutant R68A (chikungunya virus strain S27) (UniProt Q8JUX5)
[14] = molecular target: CHIKV E2-E1 envelope glycoproteins (strain S27), E2 mutant I101A (chikungunya virus strain S27) (UniProt Q8JUX5)
[15] = molecular target: CHIKV E2-E1 envelope glycoproteins (strain S27), E2 mutant A81S (chikungunya virus strain S27) (UniProt Q8JUX5)
[16] = molecular target: CHIKV E2-E1 envelope glycoproteins (strain S27), E2 mutant I54A (chikungunya virus strain S27) (UniProt Q8JUX5)
[17] = molecular target: CHIKV E2-E1 envelope glycoproteins (strain S27), E2 mutant T126A (chikungunya virus strain S27) (UniProt Q8JUX5)
[18] = molecular target: CHIKV E2-E1 envelope glycoproteins (strain S27), E2 mutant E35A (chikungunya virus strain S27) (UniProt Q8JUX5)
[19] = molecular target: CHIKV E2-E1 envelope glycoproteins (strain S27), E2 mutant H73A (chikungunya virus strain S27) (UniProt Q8JUX5)
[20] = molecular target: CHIKV E2-E1 envelope glycoproteins (strain S27), E2 mutant T42A (chikungunya virus strain S27) (UniProt Q8JUX5)
[21] = molecular target: CHIKV E2-E1 envelope glycoproteins (strain S27), E2 mutant I93A (chikungunya virus strain S27) (UniProt Q8JUX5)
[22] = molecular target: CHIKV E2-E1 envelope glycoproteins (strain S27), E2 mutant T96A (chikungunya virus strain S27) (UniProt Q8JUX5)
[23] = molecular target: CHIKV E2-E1 envelope glycoproteins (strain S27), E2 mutant S88A (chikungunya virus strain S27) (UniProt Q8JUX5)
[24] = molecular target: CHIKV E2-E1 envelope glycoproteins (strain S27), E2 mutant S124A (chikungunya virus strain S27) (UniProt Q8JUX5)
[25] = molecular target: CHIKV E2-E1 envelope glycoproteins (strain S27), E2 mutant G95A (chikungunya virus strain S27) (UniProt Q8JUX5)
[26] = molecular target: CHIKV E2-E1 envelope glycoproteins (strain S27), E2 mutant P133A (chikungunya virus strain S27) (UniProt Q8JUX5)
[27] = molecular target: CHIKV E2-E1 envelope glycoproteins (strain S27), E2 mutant H127A (chikungunya virus strain S27) (UniProt Q8JUX5)
[28] = molecular target: CHIKV E2-E1 envelope glycoproteins (strain S27), E2 mutant V50A (chikungunya virus strain S27) (UniProt Q8JUX5)
[29] = molecular target: CHIKV E2-E1 envelope glycoproteins (strain S27), E2 mutant T58A (chikungunya virus strain S27) (UniProt Q8JUX5)
[30] = molecular target: CHIKV E2-E1 envelope glycoproteins (strain S27), E2 mutant P75A (chikungunya virus strain S27) (UniProt Q8JUX5)
[31] = molecular target: CHIKV E2-E1 envelope glycoproteins (strain S27), E2 mutant A103S (chikungunya virus strain S27) (UniProt Q8JUX5)
[32] = molecular target: CHIKV E2-E1 envelope glycoproteins (strain S27), E2 mutant N72A (chikungunya virus strain S27) (UniProt Q8JUX5)
[33] = molecular target: CHIKV E2-E1 envelope glycoproteins (strain S27), E2 mutant G114A (chikungunya virus strain S27) (UniProt Q8JUX5)

Substance | Binding Reactivity (% WT) [1] | Binding Reactivity (% WT) [2] | Binding Reactivity (% WT) [3] | Binding Reactivity (% WT) [4] | Binding Reactivity (% WT) [5] | Binding Reactivity (% WT) [6] | Binding Reactivity (% WT) [7] | Binding Reactivity (% WT) [8] | Binding Reactivity (% WT) [9] | Binding Reactivity (% WT) [11] | Binding Reactivity (% WT) [12] | Binding Reactivity (% WT) [13] | Binding Reactivity (% WT) [14] | Binding Reactivity (% WT) [15] | Binding Reactivity (% WT) [16] | Binding Reactivity (% WT) [17] | Binding Reactivity (% WT) [18] | Binding Reactivity (% WT) [19] | Binding Reactivity (% WT) [20] | Binding Reactivity (% WT) [21] | further results
CHIKV mAb IM-CKV065 (antibody) | 98.5 % WT | 6.2 % WT | 98.1 % WT | 3.7 % WT | 112 % WT | 34.8 % WT | 142 % WT | 111 % WT | -2.9 % WT | -2.9 % WT | 43.3 % WT | 88.1 % WT | 6.3 % WT | 96.6 % WT | 80.8 % WT | 67.2 % WT | 11.7 % WT | -0.9 % WT | 104 % WT | -0.9 % WT | Binding Reactivity (% WT) [10]: 99.6 % WT; Binding Reactivity (% WT) [22]: 113 % WT; Binding Reactivity (% WT) [23]: 101 % WT; Binding Reactivity (% WT) [24]: 97.3 % WT; Binding Reactivity (% WT) [25]: 92.6 % WT; Binding Reactivity (% WT) [26]: 66.6 % WT; Binding Reactivity (% WT) [27]: 81.9 % WT; Binding Reactivity (% WT) [28]: 48.2 % WT; Binding Reactivity (% WT) [29]: 93.5 % WT; Binding Reactivity (% WT) [30]: 84.9 % WT; Binding Reactivity (% WT) [31]: 46.8 % WT; Binding Reactivity (% WT) [32]: 103 % WT; Binding Reactivity (% WT) [33]: 35.2 % WT
Mxra8-Fc (mouse Mxra8 extracellular domain fused to mouse IgG2b Fc) (Fc fusion) | 94.6 % WT | 17.3 % WT | 91.2 % WT | 36.2 % WT | 102 % WT | 76.7 % WT | 86.8 % WT | 102 % WT | -0.1 % WT | -0.2 % WT | 26.3 % WT | 66.1 % WT | 23.7 % WT | 85.2 % WT | 104 % WT | 76 % WT | 11 % WT | 102 % WT | 95.7 % WT | 14.6 % WT | Binding Reactivity (% WT) [22]: 95.6 % WT; Binding Reactivity (% WT) [23]: 94 % WT; Binding Reactivity (% WT) [24]: 92.8 % WT; Binding Reactivity (% WT) [25]: 94.6 % WT; Binding Reactivity (% WT) [26]: 81.3 % WT; Binding Reactivity (% WT) [27]: 78 % WT; Binding Reactivity (% WT) [28]: 67.8 % WT; Binding Reactivity (% WT) [29]: 94.1 % WT; Binding Reactivity (% WT) [30]: 86.7 % WT; Binding Reactivity (% WT) [31]: 91.3 % WT; Binding Reactivity (% WT) [32]: 128 % WT; Binding Reactivity (% WT) [33]: 79.1 % WT
CHIKV mAb C9 (antibody) | 81.4 % WT | 18.7 % WT | 88.9 % WT | 11.1 % WT | 102 % WT | 71.9 % WT | 84.7 % WT | 109 % WT | -0.2 % WT | 0 % WT | 39.6 % WT | 64.8 % WT | 26.6 % WT | 86.6 % WT | 110 % WT | 106 % WT | 22.2 % WT | 89.6 % WT | 102 % WT | 10.4 % WT | Binding Reactivity (% WT) [10]: 85.7 % WT; Binding Reactivity (% WT) [22]: 99.2 % WT; Binding Reactivity (% WT) [23]: 122 % WT; Binding Reactivity (% WT) [24]: 116 % WT; Binding Reactivity (% WT) [25]: 86.2 % WT; Binding Reactivity (% WT) [26]: 87.2 % WT; Binding Reactivity (% WT) [27]: 92.4 % WT; Binding Reactivity (% WT) [28]: 76.7 % WT; Binding Reactivity (% WT) [29]: 98.6 % WT; Binding Reactivity (% WT) [30]: 98.5 % WT; Binding Reactivity (% WT) [31]: 69.7 % WT; Binding Reactivity (% WT) [32]: 112 % WT; Binding Reactivity (% WT) [33]: 67.5 % WT
CHIKV mAb IM-CKV063 (antibody) | 86.9 % WT | 18.7 % WT | 94.3 % WT | 8.3 % WT | 99.9 % WT | 59 % WT | 107 % WT | 84 % WT | 0.4 % WT | 0.5 % WT | 37.3 % WT | 67.1 % WT | 19.8 % WT | 93 % WT | 102 % WT | 83.4 % WT | 19.1 % WT | 84.2 % WT | 111 % WT | 8.4 % WT | Binding Reactivity (% WT) [10]: 84.2 % WT; Binding Reactivity (% WT) [22]: 111 % WT; Binding Reactivity (% WT) [23]: 89.5 % WT; Binding Reactivity (% WT) [24]: 97.8 % WT; Binding Reactivity (% WT) [25]: 88.9 % WT; Binding Reactivity (% WT) [26]: 73.9 % WT; Binding Reactivity (% WT) [27]: 96.1 % WT; Binding Reactivity (% WT) [28]: 64.1 % WT; Binding Reactivity (% WT) [29]: 88.7 % WT; Binding Reactivity (% WT) [30]: 96.4 % WT; Binding Reactivity (% WT) [31]: 65.8 % WT; Binding Reactivity (% WT) [32]: 114 % WT; Binding Reactivity (% WT) [33]: 58.4 % WT
CHIKV mAb CHKV-88 (antibody) | 121 % WT | 38.8 % WT | 105 % WT | 37.5 % WT | 106 % WT | 71.1 % WT | 100 % WT | 118 % WT | -0.1 % WT | 3.7 % WT | 85 % WT | 74.7 % WT | 44.5 % WT | 82.3 % WT | 116 % WT | 95.1 % WT | 55.9 % WT | 91.8 % WT | 112 % WT | 29.1 % WT | Binding Reactivity (% WT) [10]: 103 % WT; Binding Reactivity (% WT) [22]: 103 % WT; Binding Reactivity (% WT) [23]: 111 % WT; Binding Reactivity (% WT) [24]: 112 % WT; Binding Reactivity (% WT) [25]: 89 % WT; Binding Reactivity (% WT) [26]: 92.3 % WT; Binding Reactivity (% WT) [27]: 91 % WT; Binding Reactivity (% WT) [28]: 78.6 % WT; Binding Reactivity (% WT) [29]: 81.2 % WT; Binding Reactivity (% WT) [30]: 115 % WT; Binding Reactivity (% WT) [31]: 85 % WT; Binding Reactivity (% WT) [32]: 109 % WT; Binding Reactivity (% WT) [33]: 65.3 % WT
